Measurements: US8691772B2, “HSP60, HSP60 peptides and T cell vaccines for immunomodulation” (Yeda Research and Development Co. Ltd., priority 2005, dated 2014)

Key:
BALB/c lymph node-cells = assay: T-cell migration assay towards SDF-1α, mouse lymph node cells; type: cell-based, BALB/c mice; conditions: in vitro, HSP60 1 hr
Text: Mice and mouse T cells. Female C57BL/6J were obtained from Harlan Olac (Bicester, U.K.). TLR2-knockout mice on the C57BL/6J background were kindly provided by Dr. S. Akira (Osaka University, Osaka, Japan). CD3^+ T cells were isolated by negative selection with anti-mouse antibody cocktail (Pan T cell kit; Miltenyi Biotec; CITY Germany). The labeled cells were then passed through separation columns (MidiMACS columns, Miltenyi Biotec). The purified cells (>97% T cells) were untreated or treated with HSP60 as described. Similarly, T cells were purified from the lymph nodes of BALB/c mice (females, 1.5 months of age).
T-cell migration assay. Migration of ^51[Cr]-labeled human and mouse T cells through FN or endothelial cells to recombinant human SDF-1α was examined in 48-well Transwell chemotaxis apparatus (5-μm pore filters, 6.5-mm diameter; Corning, N.Y.), as previously described (Zanin-Zhorov et al., 2003b). For transendothelial migration assays, 2×10^4 cells of HUVEC were layered on the filters and grown in 10% FCS M199 for 2 days before the performance of each assay. Then, HUVEC were stimulated with TNF-α (50 ng/ml) for 24 hr and washed.

SOCS3 = SOCS3 expression in human T cells (immunoblot); type: cell-based
[1] = tested on: AKT, Pyk-2, p38, ERK, NF-κB, T-bet; assay: Western blot analysis of CD4+CD25+ / CD4+CD25- T-cell lysates; type: cell-based, human
Text: CFSE labeling of CD4^+CD25^− T cells. CD4^+CD25^− T cells were labeled with Vybrant™ CFDA SE Cell Tracer Kit (Molecular Probes; Eugene, Oreg.) according to the manufacturer's instructions. Labeled CD4^+CD25^− T cells were co-cultured with CD4^+CD25^+ T cells on anti-CD3 mAb, as described above, for 6 hr. After co-culture, CD4^+CD25^− T cells were isolated by sorting using a Becton Dickinson FACSVantage (Mountain View, Calif.).
Western blot analysis of T-cell lysates. Indicated populations of T cells (5×10^6) were preincubated with 1 ng/ml of HSP60 for 10 min (37° C. in a 7% CO2, humidified atmosphere). […] Total cell lysates, nuclear and cytoplasmic extracts were prepared as previously described (Zanin-Zhorov et al., 2003, section D of the Examples herein), analyzed for protein content. Sample buffer was then added and, after boiling, the samples, containing equal amounts of proteins, were separated on 10% SDS-PAGE gel and transferred to nitrocellulose membranes. The membranes were blocked and probed with the following mAb in the same buffer: anti-phosphorylated (p) ERK. […]

STAT3 = STAT3 phosphorylation in human T cells; type: cell-based
Description: Western blotting of T-cell lysates. T cells were incubated (24 hr, 37° C.) in starvation medium (RPMI medium without serum). Aliquots (5×10^6/sample) of the starved cells were preincubated (for various intervals) with different concentrations of HSP60 prior to exposure to SDF-1α (100 ng/ml, 10 min, 37° C., tissue culture conditions). These reactions were terminated by freezing the plates (−70° C., 10 min). The plates were thawed, and the cells solubilized by incubating (60 min, 4° C.) in lysis buffer [EDTA (0.5 mM), NaCL (150 mM), NaF (10 nM), Tris pH 7.5 (25 mM), Triton X-100 (1%), PMSF (200 pg/ml), and phosphatase inhibitor cocktail (1%)]. Lysates were cleared by centrifugation (30 min, 14×10^3 rpm, 4° C.), and the resulting supernatants analyzed for protein content. Sample buffer was added, the samples were boiled, and equal amounts of proteins were separated by 10% SDS-PAGE and transferred to nitrocellulose membranes. […] Phosphorylation levels of the 3-5 independent experiments were estimated by densitometry, and an average percentage of phosphorylation±SD was calculated as OD of pERK/tERK, or pPyk2/tPyk2, or pAKT/tAKT, pMLC/tMLC, or pSTAT3/tSTAT3×100%.

ConA-induced hepatitis = ConA-induced hepatitis (acute liver injury); type: in vivo, BALB/c mice
[2] = tested on: human CD3^+, CD4^+, and CD8^+ T cells; assay: Cytokine secretion of anti-CD3-activated CD3+, CD4+, CD8+ and CD25-separated T cells; type: cell-based; conditions: for secretion of IL-10 and TGF-β: anti-CD3
Text: Purified T-cell populations. […] In a second round of purification, CD4^+ T cells were separated to CD25^− and CD25^+ populations with magnetically coupled mAb against human CD25 (Miltenyi Biotec; Bergisch Gladbach, Germany).

[3] = i.p. 330 μl, 500 ng/ml, 18 and 1 hr prior to ConA, 24 hr after ConA
[4] = CD3+ and CD4+ T cells pre-treated 2 hours, washed, anti-CD3 24 hr

B1: HSP60: recombinant human heat shock protein 60 (StressGen Biotechnologies) (protein)
chain: AKDVKFGADARALMLQGVDLLADAVAVTMGPKGRTVIIEQSWGSPKVTKDGVTVAKSIDLKDKYKNIGAKLVQDVANNTNEEAGDGTTTATVLARSIAKEGFEKISKGANPVEIRRGVMLAVDAVIAELKKQSKPVTTPEEIAQVATISANGDKEIGNIISDAMKKVGRKGVITVKDGKTLNDELEIIEGMKFDRGYISPYFINTSKGQKCEFQDAYVLLSEKKISSIQSIVPALEIANAHRKPLVIIAEDVDGEALSTLVLNRLKVGLQVVAVKAPGFGDNRKNQLKDMAIATGGAVFGEEGLTLNLEDVQPHDLGKVGEVIVTKDDAMLLKGKGDKAQIEKRIQEIIEQLDVTTSEYEKEKLNERLAKLSDGVAVLKVGGTSDVEVNEKKDRVTDALNATRAAVEEGIVLGGGCALLRCIPALDSLTPANEDQKIGIEIIKRTLKIPAMTIAKNAGVEGSLIVEKIMQSSSEVGYDAMAGDFVNMVEKGIIDPTKVVRTALLDAAGVASLLTTAEVVVTEIPKEEKDPGMGAMGGMGGGMGGGMF
For B1, the “migration of mouse lymph node cells towards SDF-1α” value (BALB/c lymph node-cells) was “inhibited migration of mouse lymph node cells towards SDF-1α”, the “time at which SOCS3 activation was apparent” value (SOCS3; 1 ng/ml) was 30 min and the “time of peak SOCS3 activation” value (SOCS3; 1 ng/ml) was 1 to 2 h. For the same molecule, the “HSP60 concentrations of maximal SOCS3 activation” value (SOCS3; biphasic dose-response curve) was 1 ng/mL and 1000 ng/mL, the “expression of SOCS3” value (SOCS3; human T cells, 1 hr, 0-1000 ng/ml) was “activated the expression of SOCS3 (P<0.05)” and the “phosphorylation of AKT, Pyk-2, and p38” value ([1]; CD4+CD25+ T cells, 1 ng/ml, 10 min) was “induced phosphorylation of AKT, Pyk-2, and p38”. For the same molecule, the “ERK phosphorylation, NF-κB nuclear translocation and T-bet expression in CD4+CD25- T cells” value ([1]; co-culture with HSP60-treated CD4+CD25+ (1:9), anti-CD3, 6 hr) was “down-regulation of ERK phosphorylation, inhibition of nuclear translocation of NF-κB and T-bet expression”, the “phosphorylation of STAT3” value (STAT3) was “induced phosphorylation of STAT3” and the “serum level of IL-6” value (ConA-induced hepatitis; 2 hr after ConA) was “to a lesser extent”. For the same molecule, the “serum level of IL-10” value (ConA-induced hepatitis; 2 hr after ConA) was “increasing the level of IL-10”, the “serum level of TNF-α” value (ConA-induced hepatitis; 2 hr after ConA) was “reduced the levels of TNFα” and the “histopathologic examination of liver sections” value (ConA-induced hepatitis; 24 hr after ConA) was “only minimal liver damage”. For the same molecule, the “GATA-3 expression in splenic T cells” value (ConA-induced hepatitis; P<0.05) was “significantly augmenting the expression”, the “serum ALT” value (ConA-induced hepatitis; [3]) was “significantly (P≦0.05) inhibited the secretion of AST and ALT” and the “serum AST” value (ConA-induced hepatitis; [3]) was “significantly (P≦0.05) inhibited the secretion of AST and ALT”. The “SOCS3 expression in splenic T cells” value (ConA-induced hepatitis; mice treated with HSP60 only) was “became elevated following HSP60 treatment”, the “SOCS3 expression in splenic T cells” value (ConA-induced hepatitis; mice treated with both ConA and HSP60) was “even more elevated” and the “ConA-induced T-bet expression in splenic T cells” value (ConA-induced hepatitis; mouse, in vivo) was “suppressed the ConA-induced expression”. The “effect on cytokine secretion at doses in the order of 10 ng/ml” value [2] was “did not affect cytokine secretion”, the “inhibition of IFN-γ and TNF-α secretion in purified CD4+CD25- T cells” value ([2]; 1 ng/ml, 2 hours, anti-CD3 24 hours) was “completely prevented the inhibition of IFN-γ and TNF-α secretion by HSP60 treatment” and the “enhancement of IL-10 secretion” value [2, 4] was 2-3 fold. The “inhibition of anti-CD3-induced IFN-γ secretion” value [2, 4] was “about 50%”, the “inhibition of anti-CD3-induced TNF-α secretion” value [2, 4] was “about 50%” and the “secretion of IL-10 and TGF-β” value ([2]; CD4+CD25- T cells, 1 ng/ml) was “but not of CD4^+CD25^− T cells”. The “cytokine secretion without anti-CD3” value ([2]; HSP60 alone, 0.01-1000 ng/ml) was “did not induce cytokine secretion by the T cells”, the “higher concentrations at which cytokine secretion was again affected significantly” value ([2]; P<0.05) was 0.1-1 μpg/ml and the “low concentrations with significant effects on cytokine secretion” value ([2]; P<0.05) was 0.1 to 1.0 ng/mL. For the same molecule, the “cytokine secretion of CD8+ T cells” value ([2]; anti-CD3-activated) was “unresponsive to HSP60 at all concentrations tested” and the “secretion of IL-10 and TGF-β” value ([2]; un-separated CD4+ or CD4+CD25+ T cells, 1 ng/ml) was “significantly up-regulated the secretion of IL-10 and TGF-β”.
